Experimental data: patent US20220025021A1 (BETH ISRAEL DEACONESS MEDICAL CENTER, published 2022)

What was measured:
Experiment in all cases: cell-based or functional assay
[1] = target: HIV-1 envelope glycoprotein of pseudovirus SC422661.8 (HIV-1)
[2] = target: HIV-1 envelope glycoprotein of pseudovirus RHPA4259.7 (HIV-1)
[3] = target: HIV-1 envelope glycoprotein of pseudovirus DU172.17 (HIV-1)
[4] = target: HIV-1 envelope glycoprotein of pseudovirus BB1012-11.TC21 (HIV-1)
[5] = target: HIV-1 envelope glycoprotein of pseudovirus CNE52 (HIV-1)
[6] = target: HIV-1 envelope glycoprotein of pseudovirus 0260.v5.c36 (HIV-1)
HIV-1 pseudovirus 263-8 = HIV-1 pseudovirus 263-8 (HIV-1)
[7] = target: HIV-1 pseudovirus SC05.8C11.2344 (HIV-1)
[8] = target: HIV-1 pseudovirus X1193_c1 (HIV-1)
[9] = target: HIV-1 pseudovirus Ce1176_A3 (HIV-1)
[10] = target: HIV-1 pseudovirus AC10.0.29 (HIV-1)
[11] = target: HIV-1 pseudovirus 6952.v1.c20 (HIV-1)

B1: MS-112 (antibody)
VH: not shown
VL: DFVLTQSPHSLSVTPGEPASISCKSSHSLIHGDRNNYLAWYVQKPGRSPQLLIYLASSRASGVPDRFSGSGSGKDFTLKISRVEAEDVGTYYCMQGRESPWTFGQGTKVDIKRTVAAPSVFIFPPSDEQLKSGTASVVCLLNNFYPREAKVQWKVDNALQSGNSQESVTEQDSKDSTYSLSSTLTLSKADYEKHKVYACEVTHQGLSSPVTKSFNRGEC
- IC50 (neutralization in TZM.bl cells) [1]: 0.275 µg/mL
- IC80 (neutralization in TZM.bl cells) [1]: 1.44 µg/mL
- IC50 (neutralization in TZM.bl cells) [2]: 0.195 µg/mL
- IC80 (neutralization in TZM.bl cells) [2]: 0.661 µg/mL
- IC50 (neutralization in TZM.bl cells) [3]: 1.77 µg/mL
- IC80 (neutralization in TZM.bl cells) [3]: 4.91 µg/mL
- IC50 (neutralization in TZM.bl cells) [4]: 0.032 µg/mL
- IC80 (neutralization in TZM.bl cells) [4]: 0.129 µg/mL
- IC50 (neutralization in TZM.bl cells) [5]: 0.133 µg/mL
- IC80 (neutralization in TZM.bl cells) [5]: 1.16 µg/mL
- IC50 (neutralization in TZM.bl cells) [6]: 0.022 µg/mL
- IC80 (neutralization in TZM.bl cells) [6]: 0.059 µg/mL

B2: MS-113 (antibody)
VH: not shown
VL: DIVLTQSPLSLSVTPGEPASISCKSSHSLIHGDRNNYLAWYVQKPGRSPQLLIYLASSRASGVPDRFSGSGSGKDFTLKISRVETEDVGTYYCMQGRESPWTFGQGTKVDIKRTVAAPSVFIFPPSDEQLKSGTASVVCLLNNFYPREAKVQWKVDNALQSGNSQESVTEQDSKDSTYSLSSTLTLSKADYEKHKVYACEVTHQGLSSPVTKSFNRGEC
- IC50 (neutralization in TZM.bl cells) [1]: 0.354 µg/mL
- IC80 (neutralization in TZM.bl cells) [1]: 2.12 µg/mL
- IC50 (neutralization in TZM.bl cells) [2]: 0.206 µg/mL
- IC80 (neutralization in TZM.bl cells) [2]: 0.696 µg/mL
- IC50 (neutralization in TZM.bl cells) [3]: 2.22 µg/mL
- IC80 (neutralization in TZM.bl cells) [3]: 8.27 µg/mL
- IC50 (neutralization in TZM.bl cells) [4]: 0.026 µg/mL
- IC80 (neutralization in TZM.bl cells) [4]: 0.109 µg/mL
- IC50 (neutralization in TZM.bl cells) [5]: 0.502 µg/mL
- IC80 (neutralization in TZM.bl cells) [5]: 5.04 µg/mL
- IC50 (neutralization in TZM.bl cells) [6]: 0.026 µg/mL
- IC80 (neutralization in TZM.bl cells) [6]: 0.092 µg/mL

B3: MS-90 (antibody)
VH: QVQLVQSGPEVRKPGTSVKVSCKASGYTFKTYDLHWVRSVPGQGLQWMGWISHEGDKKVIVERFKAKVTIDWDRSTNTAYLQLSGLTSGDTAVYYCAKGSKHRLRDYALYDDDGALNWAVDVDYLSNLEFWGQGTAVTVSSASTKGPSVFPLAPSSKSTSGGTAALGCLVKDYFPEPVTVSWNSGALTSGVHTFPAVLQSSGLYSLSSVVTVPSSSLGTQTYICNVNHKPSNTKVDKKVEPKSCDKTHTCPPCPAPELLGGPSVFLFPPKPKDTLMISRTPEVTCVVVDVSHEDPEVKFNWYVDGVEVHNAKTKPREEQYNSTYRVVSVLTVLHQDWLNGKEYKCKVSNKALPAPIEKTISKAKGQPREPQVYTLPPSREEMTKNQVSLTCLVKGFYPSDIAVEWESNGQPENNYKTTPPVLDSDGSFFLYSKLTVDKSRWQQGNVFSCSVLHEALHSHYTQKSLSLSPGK
VL: DFVLTQSPLSLSVTPGESASISCKSSHSLIHGDRNNYLAWYVQKPGRSPQLLIYLASSRASGVPDRFSGSGSDKDFTLKISRVETEDVGTYYCMQGRESPWTFGQGTKVDIKRTVAAPSVFIFPPSDEQLKSGTASVVCLLNNFYPREAKVQWKVDNALQSGNSQESVTEQDSKDSTYSLSSTLTLSKADYEKHKVYACEVTHQGLSSPVTKSFNRGEC
- IC50 (neutralization in TZM.bl cells) (HIV-1 pseudovirus 263-8): 0.021 µg/mL
- IC80 (neutralization in TZM.bl cells) (HIV-1 pseudovirus 263-8): 0.109 µg/mL
- IC50 (neutralization in TZM.bl cells) [7]: 1.5 µg/mL
- IC80 (neutralization in TZM.bl cells) [7]: 3.84 µg/mL
- IC50 (neutralization in TZM.bl cells) [8]: 0.114 µg/mL
- IC80 (neutralization in TZM.bl cells) [8]: 0.399 µg/mL
- IC50 (neutralization in TZM.bl cells) [9]: 0.22 µg/mL
- IC80 (neutralization in TZM.bl cells) [9]: 4.24 µg/mL
- IC50 (neutralization in TZM.bl cells) [10]: 0.059 µg/mL
- IC80 (neutralization in TZM.bl cells) [10]: 0.592 µg/mL
- IC50 (neutralization in TZM.bl cells) [11]: 2.68 µg/mL
- IC80 (neutralization in TZM.bl cells) [11]: > 25 µg/mL

B4: MS-87 (antibody, V domains shown)
VH: QVQLVQSGPEVRKPGTSVKVSCKAPGNTLKTYDLHWVRSVPGQGLQWMGWISHEGDKKVIVERFKAKVTITRDRSTNTAYLQLSGLTSGDTAVYYCAKGSKHRLRDYALYDDDGALNWAVDVDYLSNLEFWGQGTAVTVSS
VL: DFVLTQSPHSLSVTPGESASISCKSSHSLIHGDRNNYLAWYVQKPGRSPQLLIYLASSRASGVPDRFSGSGSDKDFTLKISRVETEDVGTYYCMQGRESPWTFGQGTKVDIKR
- IC50 (neutralization in TZM.bl cells) (HIV-1 pseudovirus 263-8): 0.065 µg/mL
- IC80 (neutralization in TZM.bl cells) (HIV-1 pseudovirus 263-8): 0.361 µg/mL
- IC50 (neutralization in TZM.bl cells) [7]: 1.23 µg/mL
- IC80 (neutralization in TZM.bl cells) [7]: 5.17 µg/mL
- IC50 (neutralization in TZM.bl cells) [8]: 0.098 µg/mL
- IC80 (neutralization in TZM.bl cells) [8]: 0.277 µg/mL
- IC50 (neutralization in TZM.bl cells) [9]: 0.907 µg/mL
- IC80 (neutralization in TZM.bl cells) [9]: 25 µg/mL
- IC50 (neutralization in TZM.bl cells) [10]: 0.059 µg/mL
- IC80 (neutralization in TZM.bl cells) [10]: 0.328 µg/mL
- IC50 (neutralization in TZM.bl cells) [11]: > 25 µg/mL
- IC80 (neutralization in TZM.bl cells) [11]: > 25 µg/mL

B5: MS-89 (antibody, V domains shown)
VH: QVQLVQSGPEVRKPGTSVKVSCKAPGYTLKTYDLHWVRSVPGQGLQWMGWISHEGDKKVIVERFKAKVTITWDRSTNTAYLQLSGLTSGDTAVYYCAKGSKHRLRDYALYDDDGALNWAVDVDYLSNLEFWGQGTAVTVSS
VL: DFVLTQSPLSLSVTPGESASISCKSSHSLIHGDRNNYLAWYVQKPGRSPQLLIYLASSRASGVPDRFSGSGSDKDFTLKISRVETEDVGTYYCMQGRESPWTFGQGTKVDIKR
- IC50 (neutralization in TZM.bl cells) (HIV-1 pseudovirus 263-8): > 25 µg/mL
- IC80 (neutralization in TZM.bl cells) (HIV-1 pseudovirus 263-8): > 25 µg/mL
- IC50 (neutralization in TZM.bl cells) [7]: 0.82 µg/mL
- IC80 (neutralization in TZM.bl cells) [7]: 3.75 µg/mL
- IC50 (neutralization in TZM.bl cells) [8]: 0.144 µg/mL
- IC80 (neutralization in TZM.bl cells) [8]: 0.636 µg/mL
- IC50 (neutralization in TZM.bl cells) [9]: 0.298 µg/mL
- IC80 (neutralization in TZM.bl cells) [9]: 9.21 µg/mL
- IC50 (neutralization in TZM.bl cells) [10]: 0.067 µg/mL
- IC80 (neutralization in TZM.bl cells) [10]: 0.618 µg/mL
- IC50 (neutralization in TZM.bl cells) [11]: > 25 µg/mL
- IC80 (neutralization in TZM.bl cells) [11]: > 25 µg/mL

B6: MS-88 (antibody, V domains shown)
VH: QVQLVQSGPEVRKPGTSVKVSCKASGYTFKTYDLHWVRSVPGQGLQWMGWISHEGDKKVIVERFKAKVTITRDRSTNTAYLQLSGLTSGDTAVYYCAKGSKHRLRDYALYDDDGALNWAVDVDYLSNLEFWGQGTAVTVSS
VL: DFVLTQSPHSLSVTPGESASISCKSSHSLIHGDRNNYLAWYVQKPGRSPQLLIYLASSRASGVPDRFSGSGSDKDFTLKISRVETEDVGTYYCMQGRESPWTFGQGTKVDIKR
- IC50 (neutralization in TZM.bl cells) (HIV-1 pseudovirus 263-8): 0.111 µg/mL
- IC80 (neutralization in TZM.bl cells) (HIV-1 pseudovirus 263-8): 0.99 µg/mL
- IC50 (neutralization in TZM.bl cells) [7]: 1.54 µg/mL
- IC80 (neutralization in TZM.bl cells) [7]: 7.31 µg/mL
- IC50 (neutralization in TZM.bl cells) [8]: 0.171 µg/mL
- IC80 (neutralization in TZM.bl cells) [8]: 0.775 µg/mL
- IC50 (neutralization in TZM.bl cells) [9]: 2.76 µg/mL
- IC80 (neutralization in TZM.bl cells) [9]: > 25 µg/mL
- IC50 (neutralization in TZM.bl cells) [10]: 0.089 µg/mL
- IC80 (neutralization in TZM.bl cells) [10]: 0.743 µg/mL
- IC50 (neutralization in TZM.bl cells) [11]: > 25 µg/mL
- IC80 (neutralization in TZM.bl cells) [11]: > 25 µg/mL

B7: MS-91 (antibody, V domains shown)
VH: QVQLVQSGPEVRKPGTSVKVSCKASGYTLKTYDLHWVRSVPGQGLQWMGWISHEGDKKVIVERFKAKVTIDWDRSTNTAYLQLSGLTSGDTAVYYCAKGSKHRLRDYALYDDDGALNWAVDVDYLSNLEFWGQGTAVTVSS
VL: DFVLTQSPLSLSVTPGESASISCKSSHSLIHGDRNNYLAWYVQKPGRSPQLLIYLASSRASGVPDRFSGSGSDTDFTLKISRVETEDVGTYYCMQGRESPWTFGQGTKVDIKR
- IC50 (neutralization in TZM.bl cells) (HIV-1 pseudovirus 263-8): 0.02 µg/mL
- IC80 (neutralization in TZM.bl cells) (HIV-1 pseudovirus 263-8): 0.075 µg/mL
- IC50 (neutralization in TZM.bl cells) [7]: 0.848 µg/mL
- IC80 (neutralization in TZM.bl cells) [7]: 2.84 µg/mL
- IC50 (neutralization in TZM.bl cells) [8]: 0.057 µg/mL
- IC80 (neutralization in TZM.bl cells) [8]: 0.388 µg/mL
- IC50 (neutralization in TZM.bl cells) [9]: 0.213 µg/mL
- IC80 (neutralization in TZM.bl cells) [9]: 2.04 µg/mL
- IC50 (neutralization in TZM.bl cells) [10]: 0.07 µg/mL
- IC80 (neutralization in TZM.bl cells) [10]: 0.632 µg/mL
- IC50 (neutralization in TZM.bl cells) [11]: 2.62 µg/mL
- IC80 (neutralization in TZM.bl cells) [11]: > 25 µg/mL

B8: MS-92 (antibody, V domains shown)
VH: QVQLVQSGPEVRKPGTSVKVSCKAPGNTLKTYDLHWVRSVPGQGLEWMGWISHEGDKKVIVERFKAKVTIDRDRSTNTAYLQLSGLRSGDTAVYYCAKGSKHRLRDYALYDDDGALNWAVDVDYLSNLEFWGQGTAVTVSS
VL: DIVLTQSPHSLSVTPGESASISCKSSHSLIHGDRNNYLAWYVQKPGRSPQLLIYLASSRASGVPDRFSGSGSDKDFTLKISRVETEDVGTYYCMQGRESPWTFGQGTKVDIKR
- IC50 (neutralization in TZM.bl cells) (HIV-1 pseudovirus 263-8): 0.024 µg/mL
- IC80 (neutralization in TZM.bl cells) (HIV-1 pseudovirus 263-8): 0.208 µg/mL
- IC50 (neutralization in TZM.bl cells) [7]: 1.54 µg/mL
- IC80 (neutralization in TZM.bl cells) [7]: 4.09 µg/mL
- IC50 (neutralization in TZM.bl cells) [8]: 0.11 µg/mL
- IC80 (neutralization in TZM.bl cells) [8]: 0.529 µg/mL
- IC50 (neutralization in TZM.bl cells) [9]: 0.6 µg/mL
- IC80 (neutralization in TZM.bl cells) [9]: 9.78 µg/mL
- IC50 (neutralization in TZM.bl cells) [10]: 0.051 µg/mL
- IC80 (neutralization in TZM.bl cells) [10]: 0.446 µg/mL
- IC50 (neutralization in TZM.bl cells) [11]: 7.38 µg/mL
- IC80 (neutralization in TZM.bl cells) [11]: > 25 µg/mL
